1 substance from article PMC7886143 can be followed below.

For the experiment, the target named is PfPDI8 (PF3D7_0827900), 3xV5-tagged (P. falciparum (3D7)). Put plainly: co-IP.

Regarding “PfBiP, Hsp70 Binding immunoglobulin Protein (natural protein)”, the other was found to be 2 fold.
